Laboratory results published in patent US20110300138A1 (published 2011).

How the values were obtained:
[1] = biological target: TSHR with Trp258 mutated to Ala, expressed in CHO cells (human) (UniProt P16473); test: cell-based or functional assay
[2] = biological target: wild type TSHR (human TSH receptor) expressed in CHO cells (human) (UniProt P16473); test: cell-based or functional assay
[3] = biological target: TSH receptor (TSHR) coated on tubes (human) (UniProt P16473); test: inhibition of 125I-K1-70 IgG binding to TSHR coated tubes; negative control 0.001 µg/mL in HBD serum pool
[4] = biological target: human TSH receptor (full length) coated on ELISA plate wells (human) (UniProt P16473); test: TSH-biotin binding inhibition ELISA, TSHR coated wells; 0.1 µg/mL in assay buffer + 100 µg/mL 5B3 IgG; negative control MAb
[5] = biological target: TSH receptor (TSHR), full length human, coated on tubes (human) (UniProt P16473); test: inhibition of 125I-K1-18 IgG binding to TSHR coated tubes; competitor 125I-K1-18 IgG; negative control sample at 0.1 µg/mL in HBD serum
[6] = biological target: human thyroid stimulating hormone receptor (TSHR), full length (human) (UniProt P16473); test: 125I-K1-70 Fab (competitor) binding to TSHR coated tubes; negative control MAb 0.001 µg/mL in assay buffer
[7] = biological target: human TSH receptor (full length) coated on ELISA plate wells (human) (UniProt P16473); test: TSH-biotin binding inhibition ELISA, TSHR coated wells; 0.1 µg/mL in HBD serum pool; negative control MAb
[8] = biological target: TSHR (thyroid stimulating hormone receptor), full length human (human) (UniProt P16473); test: negative control; competitor ^125I-K1-70 IgG, TSHR coated tubes; 0.01 µg/mL in assay buffer
[9] = biological target: TSH receptor (TSHR), full length human, coated on tubes (human) (UniProt P16473); test: inhibition of 125I-K1-18 IgG binding to TSHR coated tubes; competitor 125I-K1-18 IgG; sample at 0.1 µg/mL in assay buffer
[10] = biological target: TSH receptor (full length human TSHR) (human) (UniProt P16473); test: competition ELISA: inhibition of M22 Fab-peroxidase (competitor) binding to TSHR coated wells; test sample at 0.1 µg/mL diluted in assay buffer
[11] = biological target: thyroid stimulating hormone receptor (TSHR), full length human TSHR (human) (UniProt P16473); test: TSH-biotin competition ELISA, TSHR coated wells; 0.01 µg/mL in assay buffer
[12] = biological target: TSHR (full length) coated on tubes (human) (UniProt P16473); test: inhibition of 125I-K1-18 Fab (competitor) binding to TSHR coated tubes; test sample 0.1 µg/mL in HBD serum
[13] = biological target: TSH receptor (full length human TSHR) (human) (UniProt P16473); test: competition ELISA: inhibition of M22 Fab-peroxidase (competitor) binding to TSHR coated wells; test sample at 100 µg/mL diluted in assay buffer
[14] = biological target: TSH receptor (TSHR), full length human, coated on tubes (human) (UniProt P16473); test: inhibition of 125I-K1-18 IgG binding to TSHR coated tubes; competitor 125I-K1-18 IgG; sample at 1 µg/mL in HBD serum
[15] = biological target: TSH receptor (full length human TSHR) coated on tubes (human) (UniProt P16473); test: 125I-TSH binding inhibition read against NIBSC 90/672; 100 ng/mL, in serum
[16] = biological target: human TSH receptor (full length) coated on ELISA plate wells (human) (UniProt P16473); test: TSH-biotin binding inhibition ELISA, TSHR coated wells; 0.003 µg/mL in assay buffer + 100 µg/mL 5B3 IgG
[17] = biological target: TSH receptor (TSHR) coated on tubes (human) (UniProt P16473); test: inhibition of 125I-K1-70 IgG binding to TSHR coated tubes; sample 10 µg/mL in assay buffer
[18] = biological target: TSH receptor (TSHR), full length human, coated on tubes (human) (UniProt P16473); test: inhibition of 125I-TSH binding to TSHR coated tubes; 1 µg/mL, diluted in HBD serum pool
[19] = biological target: thyroid stimulating hormone receptor (full length human TSHR) (human) (UniProt P16473); test: ELISA, inhibition of TSH-biotin binding to TSHR coated wells; 10 µg/mL, diluted in assay buffer
[20] = biological target: TSH receptor (TSHR), full length human, coated on tubes (human) (UniProt P16473); test: inhibition of 125I-TSH binding to TSHR coated tubes; 10 µg/mL, diluted in assay buffer
[21] = biological target: thyroid stimulating hormone receptor (TSHR), full length, coated on tubes (human) (UniProt P16473); test: inhibition of 125I-TSH binding, TSHR coated tubes; antibody 0.1 µg/mL in assay buffer; mean of duplicate
[22] = biological target: TSH receptor (TSHR) coated on tubes (human) (UniProt P16473); test: inhibition of 125I-K1-70 IgG binding to TSHR coated tubes; sample 10 µg/mL in HBD serum pool
[23] = biological target: thyroid stimulating hormone receptor (full length human TSHR) (human) (UniProt P16473); test: ELISA: inhibition of M22 Fab-peroxidase (competitor) binding to TSHR coated wells; 10 µg/mL, diluted in assay buffer
[24] = biological target: human TSH receptor (full length) coated on ELISA plate wells (human) (UniProt P16473); test: TSH-biotin binding inhibition ELISA, TSHR coated wells; 10 µg/mL in HBD serum pool
[25] = biological target: thyroid stimulating hormone receptor (full length human TSHR) (human) (UniProt P16473); test: ELISA, inhibition of TSH-biotin binding to TSHR coated wells; 0.1 µg/mL, diluted in assay buffer
[26] = biological target: human TSH receptor (full length) coated on ELISA plate wells (human) (UniProt P16473); test: TSH-biotin binding inhibition ELISA, TSHR coated wells; 100 µg/mL in assay buffer + 100 µg/mL 5B3 IgG

5B3 IgG (antibody) showed a % inhibition of TSH stimulation; 5B3 10 µg/mL [1] of 15%, a % inhibition of TSH stimulation; 5B3 100 µg/mL [1] of 4% and a Cyclic AMP produced; 5B3 10 µg/mL + TSH 3 ng/mL [1] of 50.7 pmol/mL. It also gave a Cyclic AMP produced; 5B3 100 µg/mL + TSH 3 ng/mL [1] of 57.6 pmol/mL, a Mutated/wild type (%) of cyclic AMP produced; 5B3 10 µg/mL + TSH 3 ng/mL [1] of 75% and a Mutated/wild type (%) of cyclic AMP produced; 5B3 100 µg/mL + TSH 3 ng/mL [1] of 79%. It also gave a Cyclic AMP produced; 5B3 10 µg/mL + TSH 3 ng/mL [2] of 67.7 pmol/mL, a Cyclic AMP produced; 5B3 100 µg/mL + TSH 3 ng/mL [2] of 72.8 pmol/mL and an Inhibition of binding (%) [3] of 3.7%. It also gave a % inhibition of TSH-biotin binding [4] of -6.4%, an Inhibition of binding (%) [5] of -7.8% and an Inhibition of binding (%) [6] of -1.8%. For the same molecule, the % inhibition of TSH-biotin binding [7] was 8.6% and the Inhibition of binding (%) [8] was -3.6%.

With 9D33 IgG (antibody) the Inhibition of binding (%) [9] was 54.8%, the Inhibition of binding (%) [10] was 35.1% and the Inhibition of binding (%) [11] was 15.3%. The Inhibition of binding (%) [12] was 32.2%, the Inhibition of binding (%) [13] was 64.1% and the Inhibition of binding (%) [14] was 62.1%.

With M22 IgG (antibody) the units/L [15] was 9.9 units/L, the units/mg [15] was 99 units/mg and the % inhibition of TSH-biotin binding [16] was -0.5%.

B1: 5C9 IgG (antibody, from another filing, V domains shown)
VH: EVQLVESGGGLIQPGGSLRLSCAASGFTVSSNYMSWVRQAPGKGLEWVSVTYSGGSTSYADSVKGRFTISRDNSKNTLYLQMNSLRAEDTAVYYCARGGRYCSSISCYARSGCDYWGQGTLVTVSS
VL: AIQMTQSPSSLSASVGDRVTITCRASQSISNYLNWYQQKPGKAPKLLIYAASSLQSGVPSRFSGSGSGTDFTLTISSLQPEDFATYYCQQSYSSPSTTFGQGTKLEIK
B1 was tested, and the Inhibition of binding (%) [17] was 84.8%, the Inhibition of binding (%) [18] was 24.8% and the Inhibition of binding (%) [19] was 37.8%. It also gave an Inhibition of binding (%) [20] of 76.7%, an Inhibition of binding (%) [21] of 21.3% and an Inhibition of binding (%) [22] of 22.7%. For the same molecule, the Inhibition of binding (%) [23] was 13.2%, the % inhibition of TSH-biotin binding [24] was 42.6% and the Inhibition of binding (%) [25] was 26.1%. It also gave a % inhibition of TSH-biotin binding [26] of 92.3%.
